In the RNAGym collection of RNA variant scans (doi:10.7554/elife.80360):

B1: HDV Ribozyme (parent)
chain: GGCCGGCAUGGUCCCAGCCUCCUCGCUGGCGCCGGCUGGGCAACAUUCCGAGGGGACCGUCCCCUCGGUAAUGGCGAAUGGGACCCA

Variants of: B1
Test: self-cleavage, relative activity (ratio to wild type); higher = more cleavage; co-transcriptional

Compared with C18G G55C, C19A C84G is higher in self-cleavage: 0.185 for the first, 0.196 for the second.

Going from C19A C84A to U20A U72C, the self-cleavage rises from 0.0519 to 0.0723.

Compared with C19U G59A, C18U G76U is higher in self-cleavage: 0.145 for the first, 1.05 for the second.

Compared with C18U C33G, C18U G59U is higher in self-cleavage: 0.252 for the first, 0.67 for the second.

Going from C18U G59A to C19G G76A, the self-cleavage falls from 0.896 to 0.0545.

Going from C18U U60G to C18U U60A, the self-cleavage rises from 0.633 to 0.852.

Compared with C19U C86G, C19U C86U is higher in self-cleavage: 0.116 for the first, 0.122 for the second.

First: C19U C86A
Second: C19G A51U
The self-cleavage of the first is higher: 0.194 for the first, 0.0678 for the second.

Going from C19G G67C to C18G C30U, the self-cleavage rises from 0.0287 to 0.0386.

First: C18G C30A
Second: U20A C33A
The self-cleavage of the first is higher: 0.0739 for the first, 0 for the second.

First: C19G G28C
Second: C19A A87U
The self-cleavage of the first is higher: 0.912 for the first, 0.223 for the second.

Going from U20A C63G to C19A U20G, the self-cleavage rises from 0 to 0.217.

Going from U20C C62G to C18G G34A, the self-cleavage rises from 0.0665 to 0.136.

Compared with C19A U46G, C19U A77G is higher in self-cleavage: 0.0386 for the first, 0.253 for the second.

First: C18G G81U
Second: C19A C24U
The self-cleavage of the first is lower: 0 for the first, 0.0674 for the second.

First: C18G A45G
Second: C19A G38A
The self-cleavage of the first is lower: 0.0639 for the first, 0.125 for the second.

First: C19G G68A
Second: C18A U47A
The self-cleavage of the first is lower: 0.021 for the first, 0.0692 for the second.

First: U20A C58U
Second: U20C C57G
The self-cleavage of the first is higher: 0.158 for the first, 0.0723 for the second.

Going from C19U C57U to C19U C57G, the self-cleavage falls from 0.165 to 0.089.

First: C19A G31U
Second: C19A G31C
The self-cleavage of the first is higher: 0.192 for the first, 0.141 for the second.

First: C18U C66G
Second: C19G C26G
The self-cleavage of the first is higher: 0.813 for the first, 0 for the second.

Going from C19G C26A to C19G G35A, the self-cleavage falls from 0.104 to 0.0297.

Going from U20A C49G to U20A C49A, the self-cleavage falls from 0.128 to 0.

First: C18G G76C
Second: C19A G34U
The self-cleavage of the first is higher: 0.147 for the first, 0 for the second.

First: C19U C49G
Second: C19U A45C
The self-cleavage of the first is higher: 0.154 for the first, 0.0767 for the second.

First: C19A A78C
Second: C18U G81U
The self-cleavage of the first is lower: 0.0248 for the first, 0.281 for the second.

Going from C19A U37C to C19U G73C, the self-cleavage falls from 0.0845 to 0.0479.

First: C19U G73U
Second: C19U G73A
The self-cleavage of the first is lower: 0.12 for the first, 0.122 for the second.

Compared with C19G G82C, C18G C84U is lower in self-cleavage: 0.0594 for the first, 0.0386 for the second.

Compared with C18G C84G, C19A C62G is lower in self-cleavage: 0.237 for the first, 0.104 for the second.

First: C19A C62U
Second: C19U A43G
The self-cleavage of the first is higher: 0.111 for the first, 0.0545 for the second.

First: C18A U65C
Second: C18A U65A
The self-cleavage of the first is higher: 0.101 for the first, 0.0723 for the second.

First: C18G G53A
Second: C18G G53C
The self-cleavage of the first is lower: 0.175 for the first, 0.227 for the second.

Going from C18U G67U to C18U G67C, the self-cleavage falls from 0.665 to 0.436.

Compared with C18U G67A, C19A C57U is lower in self-cleavage: 0.468 for the first, 0.155 for the second.

First: C18U C32U
Second: C19A U47C
The self-cleavage of the first is higher: 0.327 for the first, 0.148 for the second.

Going from C19A U47G to C19A U47A, the self-cleavage rises from 0.0361 to 0.0554.

First: U20A G35U
Second: U20A G35C
The self-cleavage of the first is lower: 0.0437 for the first, 0.122 for the second.

Going from U20A G35A to C19U G55U, the self-cleavage falls from 0.158 to 0.0573.

Compared with C19A C30A, U20A U46A is higher in self-cleavage: 0.0357 for the first, 0.0594 for the second.

Going from C18U A45U to U20C C44A, the self-cleavage falls from 0.361 to 0.

First: C19U G39C
Second: C18G U27C
The self-cleavage of the first is lower: 0.133 for the first, 0.237 for the second.

Compared with C19A G73A, C19A G73U is higher in self-cleavage: 0.0519 for the first, 0.0631 for the second.

Going from U20A U47C to U20A U47A, the self-cleavage rises from 0.0594 to 0.104.

First: C19G C49U
Second: C18G C19U
The self-cleavage of the first is lower: 0.0326 for the first, 0.0898 for the second.

Going from C18U G80A to C18U G80C, the self-cleavage falls from 0.196 to 0.102.

Compared with C19G C32A, C19G A78U is higher in self-cleavage: 0.0462 for the first, 0.0773 for the second.

Compared with C19U A83C, C19A G80U is lower in self-cleavage: 0.217 for the first, 0.0513 for the second.

First: U20A G81C
Second: C19U G76A
The self-cleavage of the first is lower: 0.0449 for the first, 0.197 for the second.

Compared with U20A G31A, U20A A43C is lower in self-cleavage: 0.155 for the first, 0.0978 for the second.

First: C18G G54U
Second: U20A C75A
The self-cleavage of the first is lower: 0.0563 for the first, 0.0923 for the second.

Going from U20A U37C to C19U G52U, the self-cleavage rises from 0 to 0.265.

First: C19U G52A
Second: C19G U37A
The self-cleavage of the first is higher: 0.137 for the first, 0.0627 for the second.

First: C19U G67C
Second: U20C C30G
The self-cleavage of the first is lower: 0.0715 for the first, 0.447 for the second.

Going from C18U G40A to C18U G40C, the self-cleavage falls from 0.691 to 0.281.

Going from C19U U23C to C18U C22U, the self-cleavage rises from 0 to 0.121.

Going from C19G G52U to C18G C85U, the self-cleavage falls from 0.145 to 0.095.

Going from C18G C85G to C18G C85A, the self-cleavage rises from 0 to 0.0554.

First: U20A C61A
Second: C19U G34A
The self-cleavage of the first is higher: 0.111 for the first, 0.0468 for the second.

First: C18G U65G
Second: C19U G74U
The self-cleavage of the first is higher: 0.115 for the first, 0.0762 for the second.

Compared with C18U G68C, C18U G68U is higher in self-cleavage: 0.544 for the first, 0.635 for the second.

Compared with C18U U23C, C18U U23A is higher in self-cleavage: 0.415 for the first, 0.519 for the second.

First: C18U A87C
Second: C18U A87G
The self-cleavage of the first is lower: 0.692 for the first, 0.733 for the second.

First: C18U C41A
Second: U20A C22A
The self-cleavage of the first is higher: 0.597 for the first, 0.0898 for the second.

Compared with C19U C61A, C18U C63U is higher in self-cleavage: 0.243 for the first, 0.733 for the second.

Compared with C18U C63G, C19U A87U is lower in self-cleavage: 0.607 for the first, 0.149 for the second.

Compared with U20C A87G, C18G C62U is higher in self-cleavage: 0.282 for the first, 0.308 for the second.

Going from C19G U46C to U20A C21A, the self-cleavage falls from 0.13 to 0.0536.

Going from U20A C21G to C19A C36U, the self-cleavage falls from 0.256 to 0.0468.

Compared with C19A C36G, C19G C33G is lower in self-cleavage: 0.0923 for the first, 0 for the second.

Compared with C19G C33A, C18U U72A is higher in self-cleavage: 0.111 for the first, 0.175 for the second.

Compared with C18U U72C, C18U U72G is higher in self-cleavage: 0.193 for the first, 0.287 for the second.

Compared with U20A C85G, C18U A83C is higher in self-cleavage: 0.107 for the first, 0.227 for the second.

First: U20A A42G
Second: C18U A70C
The self-cleavage of the first is lower: 0 for the first, 0.514 for the second.

First: C18U A70G
Second: C18U A70U
The self-cleavage of the first is higher: 0.752 for the first, 0.658 for the second.

First: C18G A70C
Second: C19A A43U
The self-cleavage of the first is lower: 0 for the first, 0.0222 for the second.

Going from C18A U23A to C18A U23G, the self-cleavage rises from 0.122 to 0.155.

First: C18G U69G
Second: C18G U69A
The self-cleavage of the first is higher: 0.128 for the first, 0.0489 for the second.

First: C18G U69C
Second: C18G G59U
The self-cleavage of the first is lower: 0.151 for the first, 0.312 for the second.

Compared with C18G G59A, U20A A45U is lower in self-cleavage: 0.128 for the first, 0 for the second.

Compared with C18G G82C, U20A C66U is higher in self-cleavage: 0 for the first, 0.0773 for the second.

Compared with C18U A51C, U20A A56U is lower in self-cleavage: 0.901 for the first, 0.0519 for the second.

Compared with C19G C48G, C19U U72G is lower in self-cleavage: 0.148 for the first, 0.0396 for the second.

Work on C19A C85A yielded a self-cleavage of 0.0963.
